Data taken from patent US20200338203A1 (Bicycle, published 2020).
Numbered stars: 1 amine (or outer) side, 2 acyl side, 3 side chain; on linkers, the order of the positions; unused ones are H or OH. Bridge positions count the residues as written; N and C are the ends. Square brackets hold non-standard residues; d marks the D form. Ends that are not written are not given here. 1Nal = N[C@@H](Cc1cccc2ccccc12)C(=O)O; TBMB = c1c(C[*:1])cc(C[*:3])cc1C[*:2]; Gly(cPent) = N[C@H](C(=O)O)C1CCCC1; hArg = N=C(N)NCCCC[C@H](N)C(=O)O; Tle = CC(C)(C)[C@H](N)C(=O)O; AF488 = AlexaFluor488 label; Aib = CC(C)(N)C(=O)O; βAla = NCCC(=O)O; Sar = CNCC(=O)O

T1: Human EphA1 (Human, UniProt P21709 26-547)
T1 construct: extracellular domain; also called EphA1 (Ecto), Human
T1 sequence (looked up): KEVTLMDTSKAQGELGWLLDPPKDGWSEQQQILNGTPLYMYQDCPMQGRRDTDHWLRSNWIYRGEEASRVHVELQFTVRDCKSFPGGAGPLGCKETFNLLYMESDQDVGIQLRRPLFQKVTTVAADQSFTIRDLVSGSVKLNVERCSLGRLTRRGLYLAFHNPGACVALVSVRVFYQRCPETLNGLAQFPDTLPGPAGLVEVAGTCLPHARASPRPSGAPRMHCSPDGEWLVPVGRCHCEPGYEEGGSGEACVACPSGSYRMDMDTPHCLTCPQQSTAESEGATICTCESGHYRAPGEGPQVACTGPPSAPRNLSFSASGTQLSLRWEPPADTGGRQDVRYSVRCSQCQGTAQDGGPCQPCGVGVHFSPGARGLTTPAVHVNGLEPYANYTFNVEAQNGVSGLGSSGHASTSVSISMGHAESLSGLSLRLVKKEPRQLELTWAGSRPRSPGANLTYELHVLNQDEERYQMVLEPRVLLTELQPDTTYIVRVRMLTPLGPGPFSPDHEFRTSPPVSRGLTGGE

T2: rat EphB1 (Rat, UniProt P09759 18-540)
T2 construct: extracellular domain; also called EphB1 (Ecto), Rat
T2 sequence (looked up): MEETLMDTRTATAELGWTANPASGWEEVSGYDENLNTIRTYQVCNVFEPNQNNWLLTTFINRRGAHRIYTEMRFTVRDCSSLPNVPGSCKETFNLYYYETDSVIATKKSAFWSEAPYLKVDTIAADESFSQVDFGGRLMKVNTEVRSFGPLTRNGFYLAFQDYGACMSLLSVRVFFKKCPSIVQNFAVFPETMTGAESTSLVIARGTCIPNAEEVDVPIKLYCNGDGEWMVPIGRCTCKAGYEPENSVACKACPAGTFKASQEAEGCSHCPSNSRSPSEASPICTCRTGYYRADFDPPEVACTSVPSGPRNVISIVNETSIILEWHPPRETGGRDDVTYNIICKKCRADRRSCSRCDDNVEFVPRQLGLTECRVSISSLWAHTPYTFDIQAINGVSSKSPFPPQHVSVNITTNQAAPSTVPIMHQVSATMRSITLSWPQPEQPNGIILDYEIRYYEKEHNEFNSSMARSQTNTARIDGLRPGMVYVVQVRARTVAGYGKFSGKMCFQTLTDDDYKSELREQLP

B1: Compound 140 (peptide)
peptide: {AF488-βAla}-[Sar][Sar][Sar][Sar][Sar][Sar][Sar][Sar][Sar][Sar]H[dD]VPC[Aib][1Nal]G[Aib]F[1Nal]CP[Tle]N[hArg]P[dD]C
modifications: linker 15-22-29 via TBMB
B2: Compound 141 (peptide)
peptide: {AF488-βAla}-[Sar][Sar][Sar][Sar][Sar][Sar][Sar][Sar][Sar][Sar]H[dD]VPC[Aib][1Nal]G[Aib]F[1Nal]CP[Tle]NR[Aib][dD]C
modifications: linker 15-22-29 via TBMB
B3: Compound 144 (peptide)
peptide: {AF488-βAla}-[Sar][Sar][Sar][Sar][Sar][Sar][Sar][Sar][Sar][Sar]H[dD]VPCP[1Nal]G[Aib]F[1Nal]CP[Tle]NR[Aib]GC
modifications: linker 15-22-29 via TBMB
B4: Compound 146 (peptide)
peptide: {AF488-βAla}-[Sar][Sar][Sar][Sar][Sar][Sar][Sar][Sar][Sar][Sar]H[dD][Gly(cPent)]PC[Aib][1Nal]G[Aib]F[1Nal]CP[Tle]NR[Aib][dD]C
modifications: linker 15-22-29 via TBMB
B5: Compound 262 (peptide)
peptide: Ac-[Sar][Sar]H[dD]VPCP[1Nal]G[Aib]F[1Nal]CP[Tle]NR[Aib]GC
modifications: linker 7-14-21 via TBMB
B6: Compound 66 (peptide)
peptide: ACPWGPFWCPVNRPGCA
modifications: N-terminal Fl-G-Sar5 before the entry; three Cys cyclised on TBMB
notes: bicyclic peptide, fluorescent

target: T3, Human EphA2 (Ecto) (Human, UniProt P29317 24-537); experiment: FP direct binding
T3 construct: extracellular domain
T3 sequence (P29317 24-537): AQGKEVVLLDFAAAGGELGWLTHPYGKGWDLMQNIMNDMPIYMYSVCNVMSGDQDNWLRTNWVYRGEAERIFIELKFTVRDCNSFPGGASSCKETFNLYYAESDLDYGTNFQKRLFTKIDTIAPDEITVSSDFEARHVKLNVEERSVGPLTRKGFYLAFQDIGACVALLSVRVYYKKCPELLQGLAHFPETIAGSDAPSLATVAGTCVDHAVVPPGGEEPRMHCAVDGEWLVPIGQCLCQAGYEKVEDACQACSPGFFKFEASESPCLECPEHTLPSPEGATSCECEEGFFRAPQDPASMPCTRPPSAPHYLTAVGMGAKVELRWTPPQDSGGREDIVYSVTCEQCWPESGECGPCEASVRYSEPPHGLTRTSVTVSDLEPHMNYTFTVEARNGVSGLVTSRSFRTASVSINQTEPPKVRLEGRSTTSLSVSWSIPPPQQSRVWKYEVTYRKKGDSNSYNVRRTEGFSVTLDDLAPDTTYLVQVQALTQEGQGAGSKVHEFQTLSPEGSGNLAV

| Binder | Kd [nM] |
| --- | --- |
| B1 | 2.05 |
| B2 | 2.65 |
| B3 | 1.04 |
| B4 | 2.19 |

target: T4, Mouse EphA2 (Ecto) (Mouse, UniProt Q03145 26-538); experiment: FP direct binding
T4 construct: extracellular domain; not shown: Fc fusion or C-terminal polyHis
T4 sequence (Q03145 26-538): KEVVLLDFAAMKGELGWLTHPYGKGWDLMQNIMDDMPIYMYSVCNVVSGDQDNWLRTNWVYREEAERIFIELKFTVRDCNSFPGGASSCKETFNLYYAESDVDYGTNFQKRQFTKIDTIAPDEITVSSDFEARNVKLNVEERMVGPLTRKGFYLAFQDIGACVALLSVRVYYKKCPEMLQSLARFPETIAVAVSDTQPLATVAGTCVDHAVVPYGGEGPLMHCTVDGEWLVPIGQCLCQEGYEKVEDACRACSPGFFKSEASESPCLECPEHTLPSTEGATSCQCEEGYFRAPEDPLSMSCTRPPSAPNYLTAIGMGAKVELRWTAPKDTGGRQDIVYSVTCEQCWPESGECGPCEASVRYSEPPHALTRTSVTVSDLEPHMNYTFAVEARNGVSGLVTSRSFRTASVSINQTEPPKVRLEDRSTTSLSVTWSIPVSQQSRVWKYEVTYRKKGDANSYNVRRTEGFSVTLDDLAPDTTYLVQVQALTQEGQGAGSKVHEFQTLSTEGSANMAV

| Binder | Kd [nM] |
| --- | --- |
| B1 | 4.55 |
| B2 | 6.5 |
| B3 | 2.56 |

target: Human & mouse EphA3 (Human & mouse) (UniProt P29320); experiment: FP direct binding, selectivity
Sequence (P29320 21-541): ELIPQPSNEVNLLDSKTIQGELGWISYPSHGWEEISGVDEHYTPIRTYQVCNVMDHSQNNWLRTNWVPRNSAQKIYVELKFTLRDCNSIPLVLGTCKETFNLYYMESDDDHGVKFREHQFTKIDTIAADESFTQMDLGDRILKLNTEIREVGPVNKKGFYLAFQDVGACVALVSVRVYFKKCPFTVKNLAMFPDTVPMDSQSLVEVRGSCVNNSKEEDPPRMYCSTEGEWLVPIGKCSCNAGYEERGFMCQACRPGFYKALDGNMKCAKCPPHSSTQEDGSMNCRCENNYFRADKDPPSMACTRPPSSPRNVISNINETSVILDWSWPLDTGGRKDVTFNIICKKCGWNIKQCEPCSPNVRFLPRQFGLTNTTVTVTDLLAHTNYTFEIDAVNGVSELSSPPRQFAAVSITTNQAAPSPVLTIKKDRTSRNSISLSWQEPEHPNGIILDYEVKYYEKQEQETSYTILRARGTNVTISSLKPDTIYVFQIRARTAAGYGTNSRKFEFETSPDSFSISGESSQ

| Binder | Kd [nM] |
| --- | --- |
| B1 | 3690 |
| B3 | 166 |
| B4 | 7190 |

target: dog EphA2 (Dog); experiment: FP direct binding, selectivity

| Binder | Kd [nM] |
| --- | --- |
| B1 | 8.7 |
| B2 | 13.3 |
| B3 | 4.39 |

target: human EphA4 (Human) (UniProt P54764); experiment: FP direct binding, selectivity
Sequence (P54764 20-547): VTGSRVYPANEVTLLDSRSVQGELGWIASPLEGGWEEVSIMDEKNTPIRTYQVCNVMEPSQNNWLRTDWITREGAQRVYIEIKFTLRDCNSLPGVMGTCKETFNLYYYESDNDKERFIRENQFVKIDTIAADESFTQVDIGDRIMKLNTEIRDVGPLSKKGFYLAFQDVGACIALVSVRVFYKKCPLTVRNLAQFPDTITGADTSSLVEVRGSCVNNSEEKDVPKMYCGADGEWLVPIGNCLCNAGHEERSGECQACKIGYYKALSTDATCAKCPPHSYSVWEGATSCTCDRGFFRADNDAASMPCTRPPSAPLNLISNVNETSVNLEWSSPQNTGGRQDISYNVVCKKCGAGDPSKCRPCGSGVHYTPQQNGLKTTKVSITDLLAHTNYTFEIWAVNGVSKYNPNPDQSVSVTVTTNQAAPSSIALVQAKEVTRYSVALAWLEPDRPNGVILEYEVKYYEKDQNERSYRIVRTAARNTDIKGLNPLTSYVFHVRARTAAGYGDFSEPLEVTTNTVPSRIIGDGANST

| Binder | Kd [nM] |
| --- | --- |
| B2 | 238000 |

target: rat & mouse EphA4 (rat & mouse) (UniProt D3ZZK3); experiment: FP direct binding, selectivity

| Binder | Kd [nM] |
| --- | --- |
| B2 | 1890 |

target: rat EphA3 (Rat) (UniProt O08680); experiment: FP direct binding, selectivity
Sequence (O08680 21-541): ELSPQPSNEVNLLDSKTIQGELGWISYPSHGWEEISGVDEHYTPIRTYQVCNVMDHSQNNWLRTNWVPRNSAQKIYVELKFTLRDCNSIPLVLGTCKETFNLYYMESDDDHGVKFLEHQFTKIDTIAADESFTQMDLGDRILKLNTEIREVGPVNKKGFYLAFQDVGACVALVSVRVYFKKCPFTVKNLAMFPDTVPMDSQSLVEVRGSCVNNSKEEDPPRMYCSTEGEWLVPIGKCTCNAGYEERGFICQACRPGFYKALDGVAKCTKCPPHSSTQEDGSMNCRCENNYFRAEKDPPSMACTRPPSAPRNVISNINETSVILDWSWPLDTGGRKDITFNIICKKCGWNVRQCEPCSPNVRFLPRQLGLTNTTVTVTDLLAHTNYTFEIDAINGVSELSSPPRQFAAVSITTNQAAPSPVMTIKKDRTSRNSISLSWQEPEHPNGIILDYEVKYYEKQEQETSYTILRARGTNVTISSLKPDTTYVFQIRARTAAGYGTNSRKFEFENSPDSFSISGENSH

| Binder | Kd [nM] |
| --- | --- |
| B2 | 137 |

target: T3, Human EphA2 (Ecto); experiment: FP competition; competitor Compound 18

| Binder | Ki [nM] |
| --- | --- |
| B5 | 0.71 |

target: T1, Human EphA1; experiment: FP direct binding, selectivity
Description: (§1) The gain used for analysis was determined for each tracer at the end of the 60 minutes where there was no protein in the well. Data was analysed using Systat Sigmaplot version 12.0. mP values were fit to a user defined quadratic equation to generate a Kd value: f=ymin+(ymax−ymin)/Lig*((x+Lig+Kd)/2-sqrt((((x+Lig+Kd)/2)\hat{ }2)−(Lig*x))). “Lig” was a defined value of the concentration of tracer used.

| Binder | Kd [nM] |
| --- | --- |
| B3 | 1710 |
| B6 | 1180 |

target: T5, mouse EphA2 (Mouse, UniProt Q03145 26-538); experiment: FP direct binding, selectivity
T5 construct: extracellular domain; C-terminal polyHis; also called EphA2 (Ecto), Mouse
T5 sequence (Q03145 26-538): as the sequence (Q03145 26-538) above
Description: as §1

| Binder | Kd [nM] |
| --- | --- |
| B1 | 4.55 |
| B2 | 6.5 |
| B3 | 2.56 |

target: rat EphA2 (Rat, UniProt D3ZBN3 27-205); experiment: FP direct binding, selectivity
Description: as §1

| Binder | Kd [nM] |
| --- | --- |
| B1 | 1.57 |
| B2 | 2.33 |
| B3 | 1.25 |

target: T2, rat EphB1; experiment: FP direct binding, selectivity
Description: as §1

| Binder | Kd [nM] |
| --- | --- |
| B3 | 1440 |
| B6 | 2270 |

target: T4, Mouse EphA2 (Ecto); experiment: FP competition; competitor Compound 18

| Binder | Ki [nM] |
| --- | --- |
| B5 | 0.72 |
